Patent publication US20080058263A1 (published 2008)

B1: 61-1 (ligand)
chain: GQNHHEVVKFMDVYQRSYCHPREVCIDVGKEYPDEIEYIFKPSCVPLMRCGGCCNDEGLECVPTEESNITMQIMRIKPHQGQHIGEMSFLQHNKCECRPKKD
B2: 61-3 (ligand)
chain: GQNHHEVVKFMDVYQRSYCHPREVCIDVGKEYPDEIEYIFKPSCVPLMRCGGCCNSEGLQCVPTEESNITMQIMRIKPHQGQHIGEMSFLQHNKCECRPKKD
B3: 63-3 (ligand)
chain: GQNHHEVVKFMDVYQRSYCHPREVCIDVGKEYPDEIEYIFKPPCVSVYRCGGCCNSEGLQCVPTEESNITMQIMRIKPHQGQHIGEMSFLQHNKCECRPKKD
B4: 81-1 (ligand)
chain: AHYNTEILKFMDVYQRSYCHPIETLVDIFQEYPDEIEYIFKPSCVPLMRCGGCCNDEGLECVPTEESNITMQIMRIKPHQGQHIGEMSFLQHNKCECRPKKD
B5: 81-3 (ligand)
chain: AHYNTEILKFMDVYQRSYCHPIETLVDIFQEYPDEIEYIFKPSCVPLMRCGGCCNSEGLQCVPTEESNITMQIMRIKPHQGQHIGEMSFLQHNKCECRPKKD
B6: 83-3 (ligand)
chain: AHYNTEILKFMDVYQRSYCHPIETLVDIFQEYPDEIEYIFKPPCVSVYRCGGCCNSEGLQCVPTEESNITMQIMRIKPHQGQHIGEMSFLQHNKCECRPKKD
B7: 83-1 (ligand)
chain: AHYNTEILKFMDVYQRSYCHPIETLVDIFQEYPDEIEYIFKPPCVSVYRCGGCCNDEGLECVPTEESNITMQIMRIKPHQGQHIGEMSFLQHNKCECRPKKD
B8: 83-5 (ligand)
chain: AHYNTEILKFMDVYQRSYCHPIETLVDIFQEYPDEIEYIFKPPCVSVYRCGGCCNDEGLECVPTEESNITMQIMRIKPHQGQHIGEMSFANHTSCRCMSKLD
B9: 41-7 (ligand)
chain: AHYNTEILKFMDVYQRSYCHPREVCIDVGKEYPDEIEYIFKPSCVPLMRCGGCCNSEGLQCVPTEESNITMQIMRIKPHQGQHIGEMSFANHTSCRCMSKLD
B10: 42-7 (ligand)
chain: AHYNTEILKFMDVYQRSYCHPREVCIDVGKEFGVATNTFFKPPCVSVYRCGGCCNSEGLQCVPTEESNITMQIMRIKPHQGQHIGEMSFANHTSCRCMSKLD
B11: 43-5 (ligand)
chain: AHYNTEILKFMDVYQRSYCHPREVCIDVGKEYPDEIEYIFKPPCVSVYRCGGCCNDEGLECVPTEESNITMQIMRIKPHQGQHIGEMSFANHTSCRCMSKLD

Key:
Assay in all cases: receptor-Fc IP
VEGFR-2-Fc = molecular target: T1, VEGFR-2-Fc (UniProt P35968 20-322)
T1 construct: domain: first 3 Ig domains; conditioned supernatant of 293T cells; also called VEGFR-2-Fc fusion protein; not shown: Fc fragment of the pIg vector
T1 sequence (P35968 20-322): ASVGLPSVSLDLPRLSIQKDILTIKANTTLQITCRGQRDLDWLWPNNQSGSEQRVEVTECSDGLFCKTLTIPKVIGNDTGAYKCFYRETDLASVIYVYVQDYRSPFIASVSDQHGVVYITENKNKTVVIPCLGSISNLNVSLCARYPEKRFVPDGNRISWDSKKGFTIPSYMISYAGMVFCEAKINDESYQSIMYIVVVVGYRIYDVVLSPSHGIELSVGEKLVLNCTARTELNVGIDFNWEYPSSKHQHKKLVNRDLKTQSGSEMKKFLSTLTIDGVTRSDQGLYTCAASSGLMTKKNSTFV
Protocol: (§1) The binding assay procedure was identical to the immunoprecipitation using pentahistidine antibody described in Example 2, apart from the composition of the immunoprecipitation (IP) mixes. The IP mixes used for the receptor binding analysis were as follows: For VEGFR-1 binding assays, the IP mix was phosphate buffered saline (PBS) containing 1.5% BSA, 0.06% Tween 20, 3 μg/ml heparin and 400 ng/ml VEGFR-1-Fc fusion protein (100 μl of this IP mix was added to 200 μl of sample supernatant); for VEGFR-2 binding assays, the IP mix was 82% conditioned cell supernatant from 293T cells transiently expressing VEGFR-2-Fc fusion protein in mixture with 18% of a PBS solution that contained 5% BSA, 0.2% Tween 20, and 10 μg/ml heparin (250 μl of IP mix was added to 200 μl of sample supernatant); and for VEGFR-3 binding assays, the IP mix was 82% conditioned cell supernatant from 293T cells transiently expressing VEGFR-3-Fc fusion protein, 18% of PBS containing 5% BSA, 0.2% Tween 20, and 10 μg/ml heparin (250 μl of IP mix was added to 200 μl of sample supernatant).

VEGFR-1-Fc = molecular target: T2, VEGFR-1-Fc (UniProt P17948 27-338)
T2 construct: domain: first three Ig domains; expressed in Drosophila S2 cells, purified on Protein A sepharose; also called VEGFR-1-Fc fusion protein; not shown: Fc fragment from the Signal-pIgPlus vector
T2 sequence (P17948 27-338): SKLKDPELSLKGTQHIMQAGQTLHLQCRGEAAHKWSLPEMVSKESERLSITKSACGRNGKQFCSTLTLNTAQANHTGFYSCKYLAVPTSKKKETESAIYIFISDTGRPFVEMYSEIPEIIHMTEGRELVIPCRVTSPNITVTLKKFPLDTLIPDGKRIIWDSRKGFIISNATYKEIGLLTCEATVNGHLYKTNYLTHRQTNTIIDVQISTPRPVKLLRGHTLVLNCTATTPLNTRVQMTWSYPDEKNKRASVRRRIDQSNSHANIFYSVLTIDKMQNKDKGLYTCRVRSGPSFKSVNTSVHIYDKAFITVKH
Protocol: as §1

VEGFR-3-Fc = molecular target: T3, VEGFR-3-Fc (UniProt P35916 25-328)
T3 construct: domain: first three Ig domains; conditioned supernatant of 293T cells; also called VEGFR-3-Fc fusion protein; not shown: Fc fragment of the pIg vector
T3 sequence (looked up): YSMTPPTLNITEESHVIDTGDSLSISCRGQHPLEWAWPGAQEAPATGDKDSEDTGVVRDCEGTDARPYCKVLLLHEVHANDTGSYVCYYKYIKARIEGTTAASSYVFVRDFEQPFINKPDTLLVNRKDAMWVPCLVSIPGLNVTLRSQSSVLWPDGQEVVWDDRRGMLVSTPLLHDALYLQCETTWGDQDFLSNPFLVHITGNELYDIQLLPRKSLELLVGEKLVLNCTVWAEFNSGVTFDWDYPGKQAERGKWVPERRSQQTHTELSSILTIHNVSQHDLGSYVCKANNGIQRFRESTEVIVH
Protocol: as §1

Row | Binder | binding result (VEGFR-2-Fc) | binding result (VEGFR-1-Fc) | binding result (VEGFR-3-Fc)
1 | B1 | no binding | binds | no binding
2 | B2 | no binding | binds | no binding
3 | B3 | binds | no binding | no binding
4 | B4 | binds | binds | no binding
5 | B5 | binds | binds | no binding
6 | B6 | binds | binds | no binding
7 | B7 | binds | binds | no binding
8 | B8 | binds | binds | no binding
9 | B9 | no binding | no binding | no binding
10 | B10 | no binding | no binding | no binding
11 | B11 | no binding | no binding | no binding
